Values quoted from earlier work as cited in article PMC7421905.

Molecular target: Laminin 411 (Homo sapiens) (UniProt Q16363)
Sequence of UniProt Q16363 (Q16363 25-1823, chain 1 of 3): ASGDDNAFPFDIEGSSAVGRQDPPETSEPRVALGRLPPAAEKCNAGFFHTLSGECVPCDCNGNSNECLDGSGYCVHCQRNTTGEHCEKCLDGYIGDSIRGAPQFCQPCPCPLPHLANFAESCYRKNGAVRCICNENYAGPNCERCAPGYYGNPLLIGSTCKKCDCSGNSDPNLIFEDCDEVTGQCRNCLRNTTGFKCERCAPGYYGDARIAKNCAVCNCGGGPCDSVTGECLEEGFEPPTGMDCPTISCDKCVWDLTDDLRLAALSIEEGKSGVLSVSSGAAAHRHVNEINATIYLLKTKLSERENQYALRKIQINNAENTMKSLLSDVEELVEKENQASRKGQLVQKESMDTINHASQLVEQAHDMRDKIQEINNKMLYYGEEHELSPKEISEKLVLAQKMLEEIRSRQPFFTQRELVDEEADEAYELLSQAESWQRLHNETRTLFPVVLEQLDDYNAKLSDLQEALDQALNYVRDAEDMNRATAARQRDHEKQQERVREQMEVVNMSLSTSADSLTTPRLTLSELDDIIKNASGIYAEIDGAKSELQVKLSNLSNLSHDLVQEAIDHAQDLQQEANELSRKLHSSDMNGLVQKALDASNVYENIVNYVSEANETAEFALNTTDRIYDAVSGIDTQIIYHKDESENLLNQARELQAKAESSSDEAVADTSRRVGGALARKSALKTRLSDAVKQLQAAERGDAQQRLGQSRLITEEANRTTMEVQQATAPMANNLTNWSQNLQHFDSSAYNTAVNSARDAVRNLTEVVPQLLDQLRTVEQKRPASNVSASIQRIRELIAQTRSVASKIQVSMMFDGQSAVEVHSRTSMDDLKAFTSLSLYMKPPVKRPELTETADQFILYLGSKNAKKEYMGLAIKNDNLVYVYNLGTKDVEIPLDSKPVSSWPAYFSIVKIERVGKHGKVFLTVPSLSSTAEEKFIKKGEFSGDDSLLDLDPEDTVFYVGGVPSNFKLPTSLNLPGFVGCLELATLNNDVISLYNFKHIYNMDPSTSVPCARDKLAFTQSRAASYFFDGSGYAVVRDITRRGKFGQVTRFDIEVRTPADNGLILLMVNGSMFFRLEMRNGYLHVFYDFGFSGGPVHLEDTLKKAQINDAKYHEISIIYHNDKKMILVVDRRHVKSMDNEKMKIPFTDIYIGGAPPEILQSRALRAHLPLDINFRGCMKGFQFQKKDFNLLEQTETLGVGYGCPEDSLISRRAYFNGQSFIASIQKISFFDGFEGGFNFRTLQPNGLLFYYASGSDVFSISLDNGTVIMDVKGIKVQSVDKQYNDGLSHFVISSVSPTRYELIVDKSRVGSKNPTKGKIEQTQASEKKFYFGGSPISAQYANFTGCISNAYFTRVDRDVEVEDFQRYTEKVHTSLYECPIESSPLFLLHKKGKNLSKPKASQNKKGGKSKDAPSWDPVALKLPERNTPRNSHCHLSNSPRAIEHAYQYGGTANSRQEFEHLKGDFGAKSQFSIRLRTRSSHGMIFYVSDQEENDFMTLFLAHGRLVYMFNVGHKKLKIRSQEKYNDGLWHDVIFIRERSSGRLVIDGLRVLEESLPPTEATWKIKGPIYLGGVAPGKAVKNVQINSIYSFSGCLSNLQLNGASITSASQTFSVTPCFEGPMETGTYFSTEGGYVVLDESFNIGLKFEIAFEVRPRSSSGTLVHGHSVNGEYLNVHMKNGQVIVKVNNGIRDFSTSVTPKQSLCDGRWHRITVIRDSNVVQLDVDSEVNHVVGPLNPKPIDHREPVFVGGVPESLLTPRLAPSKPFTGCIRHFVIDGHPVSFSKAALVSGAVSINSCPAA
Sequence of UniProt Q16363 (P07942 22-1786, chain 2 of 3, further chain): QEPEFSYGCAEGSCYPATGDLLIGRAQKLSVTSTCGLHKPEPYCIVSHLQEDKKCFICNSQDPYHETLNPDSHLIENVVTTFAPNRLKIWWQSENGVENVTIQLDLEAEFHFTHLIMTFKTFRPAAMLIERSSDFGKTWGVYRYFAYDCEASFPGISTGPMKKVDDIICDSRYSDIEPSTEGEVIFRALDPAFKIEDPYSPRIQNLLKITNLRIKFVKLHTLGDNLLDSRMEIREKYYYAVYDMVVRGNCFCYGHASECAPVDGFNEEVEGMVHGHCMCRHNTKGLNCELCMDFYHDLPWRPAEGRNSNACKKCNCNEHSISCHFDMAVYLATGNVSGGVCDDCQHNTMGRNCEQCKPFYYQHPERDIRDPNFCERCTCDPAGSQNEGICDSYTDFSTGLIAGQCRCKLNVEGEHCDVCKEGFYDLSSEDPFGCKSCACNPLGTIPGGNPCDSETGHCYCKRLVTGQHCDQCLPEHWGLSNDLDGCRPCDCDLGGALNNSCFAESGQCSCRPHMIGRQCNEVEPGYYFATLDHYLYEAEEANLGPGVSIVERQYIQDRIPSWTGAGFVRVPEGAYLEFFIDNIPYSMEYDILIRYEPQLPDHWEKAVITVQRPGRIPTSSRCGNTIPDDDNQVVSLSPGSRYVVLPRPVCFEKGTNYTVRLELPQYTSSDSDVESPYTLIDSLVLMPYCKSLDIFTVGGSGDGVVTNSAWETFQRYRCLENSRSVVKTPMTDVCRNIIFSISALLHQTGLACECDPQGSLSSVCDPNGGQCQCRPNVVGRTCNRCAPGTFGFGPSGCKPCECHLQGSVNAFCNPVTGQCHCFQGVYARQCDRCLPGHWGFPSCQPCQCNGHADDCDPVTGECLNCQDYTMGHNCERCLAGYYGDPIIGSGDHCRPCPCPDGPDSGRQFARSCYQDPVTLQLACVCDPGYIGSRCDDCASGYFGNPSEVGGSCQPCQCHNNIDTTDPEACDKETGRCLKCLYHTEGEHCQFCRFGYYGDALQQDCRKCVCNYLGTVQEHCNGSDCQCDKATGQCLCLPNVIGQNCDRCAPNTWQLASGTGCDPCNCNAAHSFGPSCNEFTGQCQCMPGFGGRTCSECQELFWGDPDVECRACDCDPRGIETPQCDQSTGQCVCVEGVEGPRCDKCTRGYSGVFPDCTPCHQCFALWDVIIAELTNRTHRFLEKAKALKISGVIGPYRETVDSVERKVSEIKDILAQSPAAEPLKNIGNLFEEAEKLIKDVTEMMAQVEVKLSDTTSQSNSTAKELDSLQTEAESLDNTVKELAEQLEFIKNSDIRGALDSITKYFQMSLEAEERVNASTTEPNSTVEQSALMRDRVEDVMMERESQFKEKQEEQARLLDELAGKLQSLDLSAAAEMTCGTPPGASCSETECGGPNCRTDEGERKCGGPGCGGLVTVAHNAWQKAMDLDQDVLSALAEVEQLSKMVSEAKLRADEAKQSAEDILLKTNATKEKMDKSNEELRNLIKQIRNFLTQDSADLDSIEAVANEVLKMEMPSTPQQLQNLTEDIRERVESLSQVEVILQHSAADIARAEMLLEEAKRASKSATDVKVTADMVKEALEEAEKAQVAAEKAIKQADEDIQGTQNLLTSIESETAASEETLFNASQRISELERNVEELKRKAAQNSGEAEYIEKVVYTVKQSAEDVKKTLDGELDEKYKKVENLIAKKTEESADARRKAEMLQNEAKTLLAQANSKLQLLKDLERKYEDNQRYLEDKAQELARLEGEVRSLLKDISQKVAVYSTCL
Sequence of UniProt Q16363 (P11047 34-1609, chain 3 of 3, further chain): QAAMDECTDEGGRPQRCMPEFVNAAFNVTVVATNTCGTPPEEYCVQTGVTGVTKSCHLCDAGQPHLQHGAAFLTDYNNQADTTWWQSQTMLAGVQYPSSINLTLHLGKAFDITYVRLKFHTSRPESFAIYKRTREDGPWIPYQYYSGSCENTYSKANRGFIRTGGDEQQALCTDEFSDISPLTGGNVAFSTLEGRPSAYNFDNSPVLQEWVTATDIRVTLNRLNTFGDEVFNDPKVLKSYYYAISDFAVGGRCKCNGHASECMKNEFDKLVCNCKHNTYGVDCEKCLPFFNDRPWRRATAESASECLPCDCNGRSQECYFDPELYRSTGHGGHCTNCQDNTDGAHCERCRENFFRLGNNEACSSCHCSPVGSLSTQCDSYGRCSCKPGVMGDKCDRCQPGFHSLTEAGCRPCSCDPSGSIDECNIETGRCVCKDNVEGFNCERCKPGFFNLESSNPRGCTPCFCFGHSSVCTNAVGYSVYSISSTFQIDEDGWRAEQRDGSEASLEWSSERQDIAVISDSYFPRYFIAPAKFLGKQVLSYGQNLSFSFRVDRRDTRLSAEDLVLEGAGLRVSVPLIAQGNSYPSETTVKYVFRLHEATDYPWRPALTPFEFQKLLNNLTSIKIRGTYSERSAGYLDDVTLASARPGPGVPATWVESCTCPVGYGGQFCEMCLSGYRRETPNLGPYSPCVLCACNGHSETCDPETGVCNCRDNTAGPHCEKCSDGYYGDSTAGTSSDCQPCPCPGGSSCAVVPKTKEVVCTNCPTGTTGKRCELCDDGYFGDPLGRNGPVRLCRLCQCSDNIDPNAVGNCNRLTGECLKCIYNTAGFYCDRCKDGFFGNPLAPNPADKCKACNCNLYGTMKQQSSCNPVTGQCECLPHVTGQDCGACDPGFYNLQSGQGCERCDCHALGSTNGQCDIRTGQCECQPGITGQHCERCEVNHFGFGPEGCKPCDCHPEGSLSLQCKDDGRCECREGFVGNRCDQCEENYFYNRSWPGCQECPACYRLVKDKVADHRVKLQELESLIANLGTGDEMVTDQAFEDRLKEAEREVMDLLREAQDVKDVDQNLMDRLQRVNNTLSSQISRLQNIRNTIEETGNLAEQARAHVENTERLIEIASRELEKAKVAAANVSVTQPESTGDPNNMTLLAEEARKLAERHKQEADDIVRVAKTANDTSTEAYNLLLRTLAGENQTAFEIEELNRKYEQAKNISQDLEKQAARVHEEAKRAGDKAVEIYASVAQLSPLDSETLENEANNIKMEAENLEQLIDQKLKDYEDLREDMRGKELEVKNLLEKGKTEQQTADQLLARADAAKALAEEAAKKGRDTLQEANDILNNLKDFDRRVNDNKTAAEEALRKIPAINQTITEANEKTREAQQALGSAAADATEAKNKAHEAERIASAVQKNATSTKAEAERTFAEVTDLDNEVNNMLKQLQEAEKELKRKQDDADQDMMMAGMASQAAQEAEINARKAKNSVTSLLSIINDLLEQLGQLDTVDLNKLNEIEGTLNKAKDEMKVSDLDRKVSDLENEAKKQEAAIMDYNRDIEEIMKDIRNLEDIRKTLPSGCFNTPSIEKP

CD146-Fc (from UniProt P43121)
Kd: 27 nM
